Laboratory results from the supplement of paper PMC10126150.
± gives the standard deviation of the averaged measurements.

The sequences below were run on ATP (assay: switch fluorescence ratio, 500 uM ATP over buffer (Cy3 cluster intensity, sum of 5 cycles each) (fold (ratio)); higher = stronger signal-on switching upon ATP binding; sequences stand for … in TCGTCGGCAGCGTCAGATGTGTATAAGAGACAGTTTTTTTTTTTTTTTTTTTTTTTTT…TC). Settings: aptamer strand: ATP DNA aptamer (quencher-CACCTGGGGGAGTATTGCGGAGGAAGG + anchor), 100 nM annealed; ATP concentration: 500 uM.
In short: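 After annealing to 100 nM quencher-labelled ATP aptamer, Cy3-labelled switching-strand clusters on a modified Illumina MiSeq flow-cell were imaged in selection buffer. A second image followed after 15 min with 500 uM ATP at 22 °C, and five such buffer/ATP cycles were done, each separated by NaOH stripping and re-annealing. The fluorescence ratio, averaged per switch-domain sequence, is summed target-cycle over summed buffer-cycle Cy3 intensity per cluster, with clusters outside 100-1000 RFU excluded.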
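Also: ATP exposure 15 min at 22 °C before imaging.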

| Sequence | switch fluorescence ratio |
| --- | --- |
| AGCGAGAGGG | 0.974 ± 0.031 |
| AGCGAGGGGG | 1.03 ± 0.032 |
| AGCGAGTTGG | 0.958 ± 0.039 |
| AGCGCCGGGG | 1.03 ± 0.015 |
| AGCGCCTTTG | 0.9905 ± 0.0024 |
| AGCGCGCGGC | 0.998 ± 0.013 |
| AGCGCGGGGG | 1.002 ± 0.006 |
| AGCGGAGTTT | 0.984 ± 0.031 |
| AGCGGATGTG | 0.978 ± 0.027 |
| AGCGGATTAA | 1.016 ± 0.0017 |
| AGCGGCACAC | 1.073 ± 0.0095 |
| AGCGGCCCGG | 1.02 ± 0.017 |
| AGCGGGGGCT | 0.997 ± 0.045 |
| AGCGGGTTAA | 1.017 ± 0.0096 |
| AGCGGTAGGG | 1.022 ± 0.0082 |
| AGCGGTCGGC | 1.04 ± 0.018 |
| AGCGGTCTAT | 1.021 ± 0.005 |
| AGCGGTTCGC | 0.9931 ± 0.0056 |
| AGCGTCAGCC | 0.99 ± 0.05 |
| AGCGTCAGTA | 0.999 ± 0.014 |
| AGCGTGTGTG | 1.05 ± 0.059 |
| AGCGTTGATG | 1.01 ± 0.03 |
| AGCGTTTGGG | 1.0289 ± 0.001 |
| AGCTAATCGT | 1.01 ± 0.014 |
| AGCTACGGTG | 1.044 ± 0.0052 |

| Sequence | switch fluorescence ratio |
| --- | --- |
| AGCTAGCGTT | 0.997 ± 0.024 |
| AGCTAGGGTC | 1.05 ± 0.049 |
| AGCTATTTGC | 0.983 ± 0.048 |
| AGCTCATGTG | 0.988 ± 0.026 |
| AGCTCGGTCG | 0.963 ± 0.017 |
| AGCTCTGACG | 1.02 ± 0.024 |
| AGCTCTGGCC | 0.961 ± 0.04 |
| AGCTGAAGAC | 1.25 ± 0.097 |
| AGCTGCAGTG | 1.02 ± 0.019 |
| AGCTGGGCTC | 1.07 ± 0.016 |
| AGCTGGGTCC | 1.04 ± 0.041 |
| AGCTGGTCCG | 1.02 ± 0.022 |
| AGCTGTGAC | 1.07 ± 0.04 |
| AGCTTAAGGG | 0.967 ± 0.02 |
| AGCTTATGGT | 0.962 ± 0.049 |
| AGCTTCAGGG | 1.01 ± 0.037 |
| AGCTTCAGTC | 1 ± 0.03 |
| AGCTTGAGGT | 0.9941 ± 0.0019 |
| AGCTTGGAAA | 1 ± 0.031 |
| AGCTTGGGAA | 0.9627 ± 0.0063 |
| AGCTTTAGAC | 1.09 ± 0.021 |
| AGCTTTCCTA | 0.9963 ± 0.007 |
| AGCTTTCGCG | 0.99 ± 0.03 |
| AGCTTTCTAT | 0.976 ± 0.011 |
| AGCTTTTCTT | 1.03 ± 0.017 |

| Sequence | switch fluorescence ratio |
| --- | --- |
| AGCTTTTGGG | 0.979 ± 0.071 |
| AGCTTTTTTG | 1.024 ± 0.0039 |
| AGGAAAAAAG | 1 ± 0.032 |
| AGGAAAAAGG | 0.974 ± 0.034 |
| AGGAAAAAGT | 1.02 ± 0.039 |
| AGGAAAAATA | 0.988 ± 0.053 |
| AGGAAAATGG | 1 ± 0.021 |
| AGGAAAATTT | 1 ± 0.047 |
| AGGAAACCCG | 0.994 ± 0.064 |
| AGGAAATAGT | 1.05 ± 0.059 |
| AGGAAATTGT | 1.01 ± 0.059 |
| AGGAAGAACG | 1.04 ± 0.02 |
| AGGAAGGCAC | 1.05 ± 0.016 |
| AGGAAGTTAG | 0.961 ± 0.022 |
| AGGAATAAAC | 1.02 ± 0.013 |
| AGGAATATGG | 1.04 ± 0.1 |
| AGGAATTTGT | 1.035 ± 0.0091 |
| AGGACCAGGT | 1.02 ± 0.025 |
| AGGACCAGTT | 1.03 ± 0.055 |
| AGGACGAGGG | 0.983 ± 0.013 |
| AGGACTGAAG | 0.989 ± 0.07 |
| AGGACTTTAG | 0.943 ± 0.091 |
| AGGAGAAAAG | 1.22 ± 0.29 |
| AGGAGATACC | 1.03 ± 0.049 |
| AGGAGATTAG | 0.978 ± 0.029 |

| Sequence | switch fluorescence ratio |
| --- | --- |
| AGGAGCATTT | 1.04 ± 0.045 |
| AGGAGGAGGG | 0.932 ± 0.021 |
| AGGAGGCAGG | 1.03 ± 0.011 |
| AGGAGGCGCG | 1.05 ± 0.1 |
| AGGAGGGCTC | 1.01 ± 0.11 |
| AGGAGGTGGC | 1.03 ± 0.017 |
| AGGAGGTGTC | 1.06 ± 0.11 |
| AGGAGTACCA | 1.04 ± 0.015 |
| AGGAGTGGAG | 0.996 ± 0.013 |
| AGGAGTGTCG | 1.04 ± 0.039 |
| AGGATAAGGA | 0.987 ± 0.029 |
| AGGATAATGA | 0.998 ± 0.03 |
| AGGATCGAGG | 1.02 ± 0.028 |
| AGGATCGTCA | 0.9893 ± 0.0038 |
| AGGATGAAAG | 0.9896 ± 0.0034 |
| AGGATGAATA | 0.9974 ± 0.0019 |
| AGGATGCATT | 1.8 ± 1.1 |
| AGGATGGACG | 1.02 ± 0.064 |
| AGGATGGGGG | 0.997 ± 0.045 |
| AGGATGGTTC | 0.9541 ± 0.0016 |
| AGGATTCGGG | 1.01 ± 0.021 |
| AGGCAAACCC | 1.0669 ± 0.00051 |
| AGGCAACCAC | 1.23 ± 0.033 |
| AGGCAGGGGA | 1.03 ± 0.025 |
| AGGCCAGGGT | 1.04 ± 0.021 |

| Sequence | switch fluorescence ratio |
| --- | --- |
| AGGCCATTGG | 1.04 ± 0.024 |
| AGGCCCTGTT | 0.989 ± 0.028 |
| AGGCCGGGGT | 1.01 ± 0.055 |
| AGGCGACTAT | 1 ± 0.011 |
| AGGCGAGGGA | 1.02 ± 0.0049 |
| AGGCGAGTTA | 0.9937 ± 0.0054 |
| AGGCGATTTA | 0.976 ± 0.022 |
| AGGCGCAGTG | 1.04 ± 0.054 |
| AGGCGCCGCA | 1.01 ± 0.018 |
| AGGCGCGGGT | 0.998 ± 0.069 |
| AGGCGGGCGA | 1.02 ± 0.05 |
| AGGCGGGCGT | 0.9623 ± 0.0022 |
| AGGCGGGTGA | 1.02 ± 0.013 |
| AGGCGGTATC | 1.047 ± 0.0025 |
| AGGCGGTTTG | 0.985 ± 0.034 |
| AGGCGTAAAT | 0.997 ± 0.029 |
| AGGCGTAGCT | 1.01 ± 0.044 |
| AGGCTAAGAT | 1.0077 ± 0.001 |
| AGGCTAGCGG | 1.01 ± 0.019 |
| AGGCTAGTGG | 0.993 ± 0.035 |
| AGGCTGAGCT | 0.979 ± 0.051 |
| AGGCTGCAGT | 1.013 ± 0.007 |
| AGGCTGGAGG | 1.01 ± 0.038 |
| AGGCTTGGGC | 0.971 ± 0.012 |
| AGGGAAATGA | 0.987 ± 0.024 |

| Sequence | switch fluorescence ratio |
| --- | --- |
| AGGGAAGGTT | 0.982 ± 0.022 |
| AGGGAATAAA | 1 ± 0.031 |
| AGGGAATAGC | 1.01 ± 0.011 |
| AGGGAATCGT | 0.9953 ± 0.0013 |
| AGGGAATGTT | 0.972 ± 0.033 |
| AGGGAATTGT | 1 ± 0.037 |
| AGGGACCTTA | 1.04 ± 0.05 |
| AGGGACTAGG | 0.994 ± 0.011 |
| AGGGAGCGCG | 0.995 ± 0.011 |
| AGGGAGGCGG | 0.974 ± 0.032 |
| AGGGAGGGGA | 1.03 ± 0.061 |
| AGGGAGGTGC | 1.02 ± 0.051 |
| AGGGAGGTTA | 0.972 ± 0.06 |
| AGGGAGTACA | 1.01 ± 0.013 |
| AGGGAGTTGC | 1.03 ± 0.038 |
| AGGGATACCG | 1.01 ± 0.066 |
| AGGGATCGTC | 0.987 ± 0.014 |
| AGGGATGGGT | 0.976 ± 0.0026 |
| AGGGATTAA | 0.99 ± 0.054 |
| AGGGATTCAT | 1.02 ± 0.032 |
| AGGGATTGAA | 0.9875 ± 0.0022 |
| AGGGCAAGCG | 0.938 ± 0.041 |
| AGGGCAGGGT | 0.975 ± 0.018 |
| AGGGCCAAGT | 0.997 ± 0.011 |
| AGGGCGGGTA | 1.01 ± 0.014 |

| Sequence | switch fluorescence ratio |
| --- | --- |
| AGGGCTCCTG | 1.0172 ± 0.00034 |
| AGGGCTGTTA | 0.998 ± 0.033 |
| AGGGCTTTCT | 0.97 ± 0.023 |
| AGGGCTTTGT | 1 ± 0.014 |
| AGGGGAAAGC | 1.01 ± 0.027 |
| AGGGGAAAGG | 0.984 ± 0.014 |
| AGGGGAAGCC | 1.02 ± 0.066 |
| AGGGGAAGTG | 0.955 ± 0.07 |
| AGGGGACTTT | 0.978 ± 0.013 |
| AGGGGAGAAC | 0.9758 ± 0.0086 |
| AGGGGAGGTG | 1.09 ± 0.05 |
| AGGGGAGTAT | 1.45 ± 0.66 |
| AGGGGAGTGT | 0.988 ± 0.029 |
| AGGGGATCGC | 0.996 ± 0.034 |
| AGGGGATTGG | 0.991 ± 0.015 |
| AGGGGCACGG | 1.02 ± 0.0093 |
| AGGGGCGGCG | 1.01 ± 0.061 |
| AGGGGCGGGC | 0.884 ± 0.13 |
| AGGGGCGGGG | 0.995 ± 0.029 |
| AGGGGCGTAG | 1 ± 0.025 |
| AGGGGGAATG | 1 ± 0.044 |
| AGGGGGACTG | 0.9635 ± 0.0022 |
| AGGGGGAGAG | 0.969 ± 0.013 |
| AGGGGGAGCA | 0.9697 ± 0.0045 |
| AGGGGGATCA | 1.011 ± 0.0061 |

| Sequence | switch fluorescence ratio |
| --- | --- |
| AGGGGGATCG | 0.9794 ± 0.0018 |
| AGGGGGCAAA | 1.02 ± 0.045 |
| AGGGGGCAGA | 1.03 ± 0.05 |
| AGGGGGCAGC | 1.01 ± 0.015 |
| AGGGGGCCCG | 1.009 ± 0.005 |
| AGGGGGCGCG | 1.01 ± 0.048 |
| AGGGGGCTGT | 0.994 ± 0.03 |
| AGGGGGGACT | 0.993 ± 0.011 |
| AGGGGGGAGG | 0.997 ± 0.026 |
| AGGGGGGCGA | 1.01 ± 0.029 |
| AGGGGGGCGT | 1.01 ± 0.016 |
| AGGGGGGCTG | 0.975 ± 0.045 |
| AGGGGGGGG | 1.03 ± 0.085 |
| AGGGGGGTCA | 0.976 ± 0.032 |
| AGGGGGGTTG | 1 ± 0.032 |
| AGGGGGTAGA | 1.05 ± 0.027 |
| AGGGGGTATC | 0.988 ± 0.023 |
| AGGGGGTCAC | 1 ± 0.026 |
| AGGGGGTCCG | 1.03 ± 0.049 |
| AGGGGGTCGA | 1.01 ± 0.035 |
| AGGGGGTGTG | 0.989 ± 0.043 |
| AGGGGGTTTG | 1.01 ± 0.033 |
| AGGGGTAAAT | 1.02 ± 0.073 |
| AGGGGTAATA | 0.9817 ± 0.006 |
| AGGGGTAGCG | 0.9539 ± 0.0073 |
